In patent US20040053365A1 (LUDWIG INSTITUTE FOR CANCER RESEARCH, published 2004):

Molecular target: T1, recombinant human GM-CSF (human, UniProt P04141 18-144)
T1 construct: also called rhGM-CSF
Test: SPR, BIAcore 2000, 100 RU rhGM-CSF on chip, antibody 1-10 nM, Langmuir 1:1 model

T1 sequence (P04141 18-144 limits assumed): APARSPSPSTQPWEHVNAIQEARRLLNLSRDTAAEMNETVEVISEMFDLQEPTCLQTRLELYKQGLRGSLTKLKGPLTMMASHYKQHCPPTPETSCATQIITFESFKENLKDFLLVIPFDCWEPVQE

- kon: 510000 M⁻¹ s⁻¹
B1: chimeric 19/2 anti-human GM-CSF monoclonal antibody (antibody, V domains shown)
VH: EVQLQQSGPELVKPGASVKISCKASGYTFTDYNIHWVKQSHGKSLDWIGYIAPYSGGTGYNQEFKNRATLTVDKSSSTAYMELRSLTSDDSAVYYCARRDRFPYFDYWGQGTTLRVSS
VL: DIVMIQSQKFVSTSVGDRVNITCKASQNVGSNVAWLQQKPGQSPKTLIYSASYRSGRVPDRFTGSGSGTDFILTITTVQSEDLAEYFCQQFNRSPLTFGSGTKLELKR
